From paper PMC5180209 (Structure (London, England : 1993), 2016)
Square brackets hold non-standard residues; d marks the D form. Ends that are not written are not given here. pS = N[C@@H](COP(=O)(O)O)C(=O)O

Molecular target: B56γ 31–380 (PP2A regulatory subunit B56) (UniProt Q13362 31-380)
Experiment: ITC

B1: BubR1 peptide 668-KLpSPIIED-675 (peptide)
peptide: KL[pS]PIIED
  fold weaker binding than the peptide with residue 676: ~1.7 fold

B2: pS-RepoMan peptide, 581-RDIASKKPLL-pS-PIPELPEVPE-601 (mono-phosphorylated RepoMan) (peptide)
peptide: RDIASKKPLL[pS]PIPELPEVPE
  Kd: 100 nM

B3: BubR1 peptide 668-KLpSPIIEDE-676 (peptide)
peptide: KL[pS]PIIEDE
  fold increase of affinity as salt is reduced from 300 mM to 150 mM: ~3.6 fold

B4: BubR1 peptide 668-KLEPIIEDE-676 (peptide)
peptide: KLEPIIEDE
  fold weaker affinity than KLpSPIIEDE: 2.4 fold

B5: pSpS-BubR1 peptide, 668-KL-pS-PIIED-pS-676 (dually-phosphorylated BubR1) (peptide)
peptide: KL[pS]PIIED[pS]
  Kd: 2000 nM

B6: pS-BubR1 peptide, 663-TLSIKKL-pS-PIIEDDREADH-681 (mono-phosphorylated BubR1) (peptide)
peptide: TLSIKKL[pS]PIIEDDREADH
  Kd: 600 nM
